Reference: the nanobody polyreactivity screen of Harvey et al. (2022)

Experiment: yeast display, Sf9 membrane polyspecificity reagent, FACS + sequencing; frameworks hold sequencing errors
In short: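 Galactose induction of a Saccharomyces cerevisiae BJ5465 synthetic nanobody display library ran 36–48 hours. The cells were then stained for 1 hour at 4 °C with 10% biotinylated, detergent-solubilized Sf9 membrane reagent, pulled down on streptavidin microbeads and FACS-sorted into low and high (top ~1%) gates on expression and reagent-binding fluorescence. Labels for polyreactivity follow the gate of origin.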

Row | Sequence | polyreactivity (PSR sort gate)
1 | QVQLVESGGGLVQAGGSLRLSCAASGRTFTFKAMGWYRQAPGKERELVAAMTSTGSTSYADSVKGRFTISRDNAKNTVYLQMNSLKPEDTAVYYCAKGYVIPYVHHVRPYGGEYLGQGTQVTVSS | low polyreactivity
2 | QVQLVESGGGLVQAGGSLRLSCAASGLTFYYYAMGWYRQAPGKEREFVAAITRSGTNTYYADSVKGRFTISRDTAKNTVYLQMNSLKPEDTAVYYCAKTGYSFRVFRKYDWGQGTQVTVSS | high polyreactivity
3 | QVQLVESGGGLVQAGGSLRLSCAASGITFVYYAMGWYRQAPGKERELVASISSGGSTYYADSVKGRFTISRDNAKNTVYLQMNSLKPEDTAVYYCAAPTGWYPAYCEYEYWGQGTQVTVSS | low polyreactivity
4 | QVQLVESGGGLVQAGGSLRLSCAASGSIFYYYSMGWYRQAPGKERELVATISSTTTTYADSVKGRFTISRDNPINTVYLNMNSMKPEDTAVYYCSFDYWGHGTQVTVSS | low polyreactivity
5 | QVQLVESGGGLVQAGGSLRLSCAASGRTFSYYAMGWYRQAPGKERELVAAISSGGSTYYADSVKGRFTISRDNAKNTVYLQMNSLKTEVSEVYYCAKSYYRYQVSSRMYYRGQGTQVTVSS | high polyreactivity
6 | QVQLGESGGGFVQAGGSLRLSCAASGSTFSYNAMGWYIQASGKESEFVAAISSSGGRTYYADSVKWRFTISRDYEKNTVYLQMKSLKPEDTAVYYCPAKSRLPTQGLGMYYWGKGTQVTVSS | high polyreactivity
7 | QVQLVESRGGLVQAGGSLRLSSAASGSIIWYYAMGWYRQAPGKERELVAAITVSGGSTYYADSVKGRFTISRDNAKNTVYLQMNSLKPEDSAVYYCAARYISLSGDEYDYWGQGTQVTVSA | low polyreactivity
8 | HVQLVESGGGLVQAGGSLRLSCAASGRIFRINVMGWCRQAPGKERELVAAISGRGGSTYYADSVKGRFTISRDNAQNTDYLQMNRLKPEDTAVYYFAARSPYRYYYWGQGTQVTVSS | high polyreactivity
9 | QVQLVESGGGLVQAGGSLRLSCPASGFIFRYYAMGWYRQAPGKERELVAAISWSGGSTNYADSVKGRFTISRDNAQNTVYLQINSLKPEDTALSYCADDGTVRSWGRYYHWGQGTQVTVSS | low polyreactivity
10 | QVQLVESGGGLVQAGGSLRLSCAASGRTLVYYAMGWYRQAPGKERELVAAITSVGSTNYADSVKGRFTISRDNAKNTVYLQMNSLKPEDTAVYYCAVRRVVARYDHWGQGTQVTVSS | low polyreactivity
11 | QVQLVESGGGLVQAGGSLRLICAASGIIFFRYAMGWYRQAPGKERELVASIRAIGGSTSYADSVKGRFTISRDNAKNTVYLQMNSLKPEDTAVFYCAARQNYRYGYWGQGTQVTVSS | high polyreactivity
12 | QVQLVESGGGLVQAGGSLRLSCAASGRTFYSYAMGWYRQAPGKERELVAAISKRGTSTYYADSVKGRFTISRDNAKNTVYLQMNSLKPEDTAVYYCAAAYRGREVEYNCWGQGTQVTVSS | high polyreactivity
13 | QVQLVESGGCLVQAGGSLRLSCAASGSTFNKYAMGWYRQAPGKERELVAAIRSNGVRTYYADSVKGRFSISRDNAKNTVYLQMNSLKPEDTPVYYCNKRYTYRYDYWGQGTQVCVSS | high polyreactivity
14 | QVQLVESGGCLVQAGGSHRLSCAASGYIVWENAMGWYRPAPGKERELVAAITVTGGGTYYADSVKGRFTISRDNSKNPGYLHMNSLKPEDTAVYYCAPDEDNPWLWFYYWGQGTQVTVSS | low polyreactivity
15 | QVQLVESGGGLVQAGGSLRLSCAASGSIFSYYVMGWYRQAPGKERELVAAISYSGGRTYYADSVKGRFTISRDNAKNTVYLQMNSLKQEDTAVYYCARRSYVYPYGYDYWGQGTQVTVSS | high polyreactivity
16 | QVQLVESGGGLVQAGGSLRISCAASGSIFGDNAMGWYRHAPGKERELVAAITFSGGSTHYADSVKGRFTISRDTAKNTVYLQMNSLKPEDTAVYYCAKRWRYSKHVNYYYWGQGTQVTVSS | high polyreactivity
17 | QVQLVESGGGLVQAGGSLRLSCAASGFIFLYYAMGWYIQAPGKERELVAAITTRGGRTYYADSVKGRFTISRDNAKNTVYLQMNSLKPEDTAVYYCAADHLYWGLEYESWGQGTQVTVSS | low polyreactivity
18 | QVQLVESGGGLVQAGGSLRLSCAASGSTFYDNTMGSYRQAPGKERELVAAITGTGGNTYYADSVKGRFTISRDNAKNTVYLQMNSLKPEDTAVYYCNRVPVYYYRYGYWGQGTQVTVSS | low polyreactivity
19 | QVQLVESGGGLVQAGGSLRLSCAASGRTFGSNAMGWYRQAPGKERELVAAIRWGGGSTYYADSVKGRFTISRDNAKNTVYLQMNSLKPEDTAVYYCAAAYNWRKYDYWGQGTQVTVSS | high polyreactivity
20 | HVQLQESAGGLVQAGGSLRLSCAASGTISSREAMGWYSQAPGKERDFVATIASGTTTYYADSVKGSFTISRDNAENTVYLQTNTLKPEDTAVYYCAAPTIQIYPFYYWGHGTQVTVSS | high polyreactivity
21 | QVQLVESGGGLVQAGGSLRLSCAASGNTLAYYDMGWYRQAPGKESELVAAITSGGTTNYADSVKGRFTISRDNAKNTVYLQMNSLKPEDTAVYYSAALGIGSSRRFSGYVYWGQGTQVTVSS | low polyreactivity
22 | QFQLVESGGGLVQAGGSLRLSCAASGFTIYLYTMGWYRQAPGKERELVATISWSGASTYYADSVKGRFTISRDNAKNTVYLQMNSLKPEDTAVYYCATRYRYRYWGQGTQVTVSS | high polyreactivity

Row | Sequence | polyreactivity (PSR sort gate)
23 | QVQLVESGGGLVQAGGSLRLSCAASGSIFRSYAMGWYRQAPGKERELVAAIRSDGRTNYADSVKGRFTISRDNAKNTVYLQMNSLKPEDTAVYYCAAKAYYSYWRSMDYWGQGTQVTVSS | low polyreactivity
24 | QVQLVESVGGLVQAGGSLRLSCAASGRTFGRKALVWYTQAPGKERELVAAISTSGSRTYYADSVKGRFTISRDNAKNTVYLQLNSLTPEDTAVYYCYAYGVSRGSYGTRGYWGQGTQVTVSS | high polyreactivity
25 | QVQIVESGGGLVQAGGSLRLTCAASGSIFGDYAMGWYRQASGKERELVASISESGGSTYYADSVKGRFTISRDNAKNTVYLQMISLKPEDTAVYYCNTDYDYGWWDLGEYEYWGHGTQVTVSS | low polyreactivity
26 | QVQLVESGGGLVQAGGSLRLSCAASGIIFAIYAMGWYRQAPGKERELVAAITWRGGSTYYADSVKGRFTISRDNAKNTVYLQMNSLKPEDTAVYYCAAVTKSLYGYDYWGQGSQVTVSS | low polyreactivity
27 | QVQLVESGGGLVQAGGSLRLSCAPSGNIFETYAMGWYRPAPGKERELVAVITRGGSTYYADSVKGRFTISRDNAKNTVYLQMNSLKPEDTAVYYCARDAYDDWYGLTDDKSDYWGQGTQVTLSS | low polyreactivity
28 | QVQLVESGGGLVQAGGSLRLSCAASGSIFTGNAMGWYRQAPGKERELVAAITQRGGRTYYADSVKGRFTISRDNAKNTVYLQMNSLKPKIPAVYYCNAKWTTLFDYWGQGTQVTVSS | high polyreactivity
29 | QVQLVESGGGLVQAGGSLRLSCAASGSIFSSYVMGWYRQAPGKERELVAAITFSGATTYYADSVKGRFTISRDNAKNTVYLQMNSLKPEDTAVYYCATKAYTTGRYYWGQGTQVTVSS | high polyreactivity
30 | QVHLVESGGGLVQAGGSLRLSCAASGYIFRWYAMGWYRQAPGKEREFVASISKRGGSTYYADSVKGRFTISRDNAKNTVYLQMNSLKPEDTAVYYCARTPSPLLYSYDYWGQGTQVTVSS | high polyreactivity
31 | QVQLVESGGGLVQAGGSLRLRCAASGITLAGYVMGWYRQAPGKERELVADISSSGDSTYYADSVKGRFTISRDNAKNTVYLQMNSLKPEDTAVYYCNADQVWWSFDRVLVGYEYWGQGSQVTVSS | low polyreactivity
32 | QVQLVESGGGLVQAGGSLRLSCASSGGIFYRNAMGWYRQAPGKERELVAVITSSGGSTYYADSVKGRFTISRDNAKNTVYLQMNSLKPVDTAVYYCAAESVAAYYWGQGTQVTVSS | high polyreactivity
33 | QVQLVESGGGLVQAGGSLRLSCAASGRTFVRYAMGWYRQAPAKERELVAVNSRRGGSTYYADSVKGRFTISRDNAKNTVYLQMNSLKPVDTAVYYFAADYVRSKYDYWGQGTQVTVSS | high polyreactivity
34 | QVQLVESGGGLVQAGGSLRLSCAASGRTFYYYAMGWYRQAPGKERELVAAISRSGGITYYADSVKGRFTISRDNAKNTVYLQMNSLKPEDTAVYYCAADAWFSLRYAPRSYAYGYWGQGTQVTVSS | low polyreactivity
35 | QVQLVESGGGLVQAGGSLRLSCAASGSIFVWYDMGWYRQAPGKERELVATISLSGVSTYYADSVKGRFTISRDNAKNPVYLQLNSLKPEDTAVYYCAADFVEQGEDDYWGQGTQVTVSS | low polyreactivity
36 | QVQLVDSGGGLVQAGGSLRLTCAASGSIFPRNVMGWYRHAPGKERELVAAISSRATRTYYADSVKGRFTISRDNAKNTVYLQMNSLKPEDTAVYYCAADRTLYSSGYYYWGQGSQVTVSS | high polyreactivity
37 | QVQLVESGGGLVQAGGSLRLSCAASGSIFRSYAMGWYRQAPGNERELVAALSGRGSNTYYADSVKGRFTISRDNAKNTVYLQMNSLKPEDTAVYYGATRRHYGSTRSYDYWGQGTQVTVSS | high polyreactivity
38 | QVQLEESGGGLVQAGGSLRLSCAASGFIFAFNAMGWYRQAPGKEREMVATISWNDGGTYYADSVKGRFTISRDNAKNTVYLEMNSLKPEDTAVYYCAADWYLYLDDKYDYWGQGTQVTVSS | low polyreactivity
39 | QVQLVESGGGLVQAGGSLRLSCAPSGYIFEIYAMGWYSQEPGKERELVAAISTRGGRTYYADSVKGRFTISRDKAKNTVYLQMNSLKPEDTAVYYCAAGFPYKFTYVGGYNHWGQGTQVTVSS | low polyreactivity
40 | QVQLVESGGGLVQAGGSLRLSCAASGRTFAWYAMGWYRQAPGKERELVAAITTRGSGTYYADSVKGRFTISRDNAKNTVYLQMNSLKPEDTAVYYCAKDPITATTLDERVFYWGQGTQVTVSS | low polyreactivity
41 | QVQLVESGVGLVQAGGSLLLSCAASGRTFSYNPMGSYRQAPGKERELVALISSGGSTNYADSVKGRFTISRDNAKNTVYLQMNSLKPEDTALYYCNAGSYVWEEDYWGQGTQVTVSS | high polyreactivity
42 | QVQLVESGGGLVQAGGSLRLSCAAYGSIFALYAMGWYRPAPGKERELVARISSGGSTYYADSVKGRFTISRDNAKNTVYLQMNSLKPEDTAVYYCARYHKTHAVLRYDYWGQGTQVTVSS | low polyreactivity
43 | QVQLVESGGGLVQAGGILRLSCPASGIIIPLYAMGWYIQAPGKERELVATINIGGSTNYADSVKGRFTISRDNAKNTVYLQMNSLKPEDTAVYYCAADVDSLQRYESWGQGTQVTVSS | low polyreactivity
